We go through 122 variants from the supplement of paper PMC10567573.

To fix the notation:
B1: MLL5 (parent)
chain: TYLCERCQPRNLDKERAVLLQRRK
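Further: lentivirally expressed fusions sorted by FACS into six bins by GFP to DsRed ratio, PSI derived from sequencing read proportions per bin multiplied by bin number.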

The variants in this series derive from B1. As to the kind of experiment: protein stability index of a GFP-peptide fusion (GPS, HEK-293T) (PSI 1-6); higher = more stable. Particulars: c terminus: a fixed tail appended.
For V18L, the protein stability index is 3.05.

Consider V18Y, for which the protein stability index worked out at 1.65.

In the case of V18N, the protein stability index came out at 1.93. Then V18R, with 3.18; and R10I, with 2.25. Take R10P: the protein stability index came to 2.67. Then R10E, with 1.99; and R10Y, with 2.04; and R10F, with 2.28. Turning to R10G, the protein stability index is 3.56. In the case of R10W, the protein stability index was determined as 1.66. Under P9H stands 1.97.

P9V: the protein stability index was determined as 2.36. Under P9T stands 2.81; under P9I, 1.91.

As to P9G, the protein stability index turned out to be 2.68. Under P9M stands 2.08; under K14G, 1.77; under K14F, 2.34. Then K14P, with 1.96. As for K14W, the protein stability index was 2.89.

As for K14R, the protein stability index amounted to 2.19.

With Y2C, the protein stability index worked out at 1.76.

Take Y2V: the protein stability index amounted to 2.16.

For the variant Y2P, the protein stability index was 3.19. In the case of Y2H, the protein stability index was 2.58. Turning to Y2E, the protein stability index worked out at 2.4. Under Y2M stands 2.53; under Y2L, 2.78. Then Y2D, with 2.78; and R23L, with 1.47; and R23I, with 2.57. Then R23C, with 2.31; and R23E, with 1.72. With L3T, the protein stability index amounted to 1.98. As to L3Q, the protein stability index came out at 2.42. With L3V, the protein stability index came out at 2.17. Then L3Y, with 2.56; and L3M, with 2.02; and L3A, with 2.33. Under L3K stands 2.83. Under L12C stands 1.85. As to L12P, the protein stability index stood at 2.69. Then L12I, with 2.17. Then L12M, with 3.49; and L12F, with 2.11; and L12V, with 2.22. Under Q21R stands 2.51; under Q21Y, 2.04; under Q21I, 1.73. For Q21D, the protein stability index came to 2.78. Under L20C stands 2.3; under L20G, 2.52. As for L20D, the protein stability index was found to be 3.55. Then L20H, with 2.23; and R6H, with 1.87. Then R6W, with 1.53.

For R6N, the protein stability index is 2.81. Under R6F stands 1.79; under R6Y, 2.83.

R6M: the protein stability index was determined as 1.81. Then R6D, with 2.93. Under L19A stands 1.76; under L19M, 2.71. Then L19D, with 2.42. On to E15S, for which the protein stability index is 2.46. Then E15P, with 2.12; and E15C, with 1.45; and E15W, with 1.94.

Consider E15G, for which the protein stability index turned out to be 2.71.

On to E15L, for which the protein stability index amounted to 2.05. Under E15H stands 2.71; under E15K, 3.21; under A17Q, 1.88. Then A17C, with 2.08; and A17K, with 2.26. Under A17L stands 1.45; under Q8C, 1.38. Consider Q8N, for which the protein stability index worked out at 1.55. Then Q8L, with 1.93. Under Q8R stands 2.44.

With Q8A, the protein stability index amounted to 2.74. Under Q8Y stands 1.5; under Q8I, 1.79. Under Q8S stands 1.14. Under T1V stands 1.5. For the variant T1E, the protein stability index worked out at 1.47. Then T1H, with 2.18. Then T1K, with 2.48. Then N11D, with 2.02; and N11I, with 1.68; and N11W, with 2.09. Regarding N11P, the protein stability index was 2.18.

For the variant N11S, the protein stability index was 2.32.

As for N11H, the protein stability index is 2.82. Under C7I stands 3.76; under C7R, 4.03; under C7A, 4.59. As to C7G, the protein stability index was 3.59. Then C4H, with 3.36; and C4Q, with 3.56. Under C4D stands 4.22. Under E5D stands 2.87; under E5A, 1.91. As for E5S, the protein stability index amounted to 2.23. Then E5K, with 1.79. Under K24W stands 3.28; under K24Y, 1.91. Then K24G, with 1.69; and R22G, with 1.98; and R22L, with 1.89. For the variant R22H, the protein stability index came to 2.28. Then R16W, with 1.69; and R16C, with 1.45. R16K: the protein stability index is 2.1.

As for R16L, the protein stability index was determined as 3.06. Then D13F, with 1.78; and D13G, with 2.71; and D13P, with 1.92. Under D13S stands 2.76; under D13N, 2.47; under D13Y, 2.48.
